Where a chain is given by its changes, count along the chain named.

Test [1] deals with T1, human MUC1 SEA domain protein (human, UniProt P15941 1036-1155).
T1 construct: also called HuMUC1-SEA; huMUC1 SEA
T1 sequence: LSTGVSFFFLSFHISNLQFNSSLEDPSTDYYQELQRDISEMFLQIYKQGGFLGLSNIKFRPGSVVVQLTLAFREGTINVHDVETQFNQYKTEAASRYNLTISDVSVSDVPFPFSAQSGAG
The experiment in a line: SPR (Biacore 2000), antibody captured, huMUC1 SEA analyte, 1:1 binding.

The target of test [2] is T1, human MUC1 SEA domain protein. The experiment in a line: SPR, antibody captured, huMUC1 SEA analyte.

B1: BG138P-Bz0 (antibody, human IgG1, V domains shown)
VH: QVQLVQSGAEVKKPGASVKVSCKASGYTFTTYTMHWIKQAPGQGLEWIGYINPGSDYTHYNQKFKDKATLTADKSASTAYMELYSLRSEDTAVYYCARQGNYAAYYFDYWGQGTLVTVSS
VL: DIQMTQSPSSLSASVGDRVTITCRASGNIHNFLVWYQQKPGKSPKLLVYNAKTLTDGVPSRFSGSGSGTQYSLTISSLQPEDVATYYCQNFWNVPFTFGSGTKLEIK
notes: human IgG1/Ckappa
In turn, B1 returned a Kd in test [1] of 0.464 nM. This counts as sub-nanomolar.

B2: BG138P-Hz0 (antibody, human IgG1, V domains shown)
VH: B1 VH with I37V, K38R, G44R, I48M, K67R, A68V, L70I, A72R, K74T, Y84S
VL: B1 VL with S43V, V48I, Q70D, Y71F, S72T, S100Q
notes: human IgG1/Ckappa
For the molecule B2, the Kd in test [1] came to 0.527 nM.

B3: BG138P-Bz12 (antibody, human IgG1, V domains shown)
VH: B1 VH
VL: B1 VL with V48I
notes: human IgG1/Ckappa
Take B3: the affinity in test [1], expressed as Kd, was 0.501 nM.

B4: BG138P-Bz16 (antibody, human IgG1, V domains shown)
VH: B1 VH
VL: B1 VL with S100Q
notes: human IgG1/Ckappa
In the case of B4, in test [1], the equilibrium dissociation constant (Kd) is 0.466 nM.

B5: BG138P-Bz7 (antibody, human IgG1, V domains shown)
VH: B1 VH with L70I
VL: B1 VL
notes: human IgG1/Ckappa
In turn, B5 registered a Kd in test [1] of 0.407 nM.

B6: BG138P-Bz10 (antibody, human IgG1, V domains shown)
VH: B1 VH with Y84S
VL: B1 VL
notes: human IgG1/Ckappa
On to B6, for which the Kd in test [1] came out at 0.448 nM.

B7: BG138P-Bz5 (antibody, human IgG1, V domains shown)
VH: B1 VH with K67R
VL: B1 VL
notes: human IgG1/Ckappa
For B7, the Kd in test [1] was 0.475 nM.

B8: huBG138P-Hz4 (antibody, V domains shown)
VH: B1 VH with I37V, K38R, I48M, K67R, A68V, L70I, Y84S
VL: B1 VL with V48I, D56S, S72T, S100Q
notes: humanized; constant regions not restated
Consider B8, for which the Kd in test [2] stood at 0.223 nM.

B9: BG138P-Bz6 (antibody, human IgG1, V domains shown)
VH: B1 VH with A68V
VL: B1 VL
notes: human IgG1/Ckappa
For B9, the equilibrium dissociation constant (Kd) in test [1] turned out to be 0.518 nM. This lies in the sub-nanomolar range.

B10: BG138P-Bz9 (antibody, human IgG1, V domains shown)
VH: B1 VH with K74T
VL: B1 VL
notes: human IgG1/Ckappa
The molecule B10 showed a Kd in test [1] of 0.476 nM.

B11: huBG138P-Hz1 (antibody, V domains shown)
VH: B1 VH with I37V, K38R, G44R, I48M, K67R, A68V, L70I, K74T, Y84S
VL: B1 VL with S43V, V48I, D56S, Q70D, S72T, S100Q
notes: humanized; constant regions not restated (IgG1/Ckappa vector used for the first round)
B11 returned a Kd in test [2] of 0.241 nM. This counts as sub-nanomolar.

B12: BG138P-Bz14 (antibody, human IgG1, V domains shown)
VH: B1 VH
VL: B1 VL with Y71F
notes: human IgG1/Ckappa
In test [1], B12 had a Kd of 0.608 nM.

B13: BG138P-Bz15 (antibody, human IgG1, V domains shown)
VH: B1 VH
VL: B1 VL with S72T
notes: human IgG1/Ckappa
Molecule B13 registered a Kd in test [1] of 0.493 nM. The Kd values of the last two molecules are within 1.5-fold of each other.

B14: BG138P-Bz3 (antibody, human IgG1, V domains shown)
VH: B1 VH with G44R
VL: B1 VL
notes: human IgG1/Ckappa
Turning to B14, binding in test [1] was put at a Kd of 0.532 nM.

B15: BG138P-Bz8 (antibody, human IgG1, V domains shown)
VH: B1 VH with A72R
VL: B1 VL
notes: human IgG1/Ckappa
In test [1], B15 displayed a dissociation constant Kd of 0.608 nM.

B16: BG138P-Bz11 (antibody, human IgG1, V domains shown)
VH: B1 VH
VL: B1 VL with S43V
notes: human IgG1/Ckappa
Consider B16, for which, in test [1], the affinity, expressed as Kd, was 0.513 nM.

B17: BG138P-Bz4 (antibody, human IgG1, V domains shown)
VH: B1 VH with I48M
VL: B1 VL
notes: human IgG1/Ckappa
On to B17, for which the Kd in test [1] stood at 0.488 nM.

B18: BG138P-Bz1 (antibody, human IgG1, V domains shown)
VH: B1 VH with I37V
VL: B1 VL
notes: human IgG1/Ckappa
As to B18, in test [1], the equilibrium dissociation constant (Kd) was 0.503 nM.

B19: BG138P-Bz2 (antibody, human IgG1, V domains shown)
VH: B1 VH with K38R
VL: B1 VL
notes: human IgG1/Ckappa
For the molecule B19, the Kd in test [1] amounted to 0.453 nM.

B20: BG138P-Bz13 (antibody, human IgG1, V domains shown)
VH: B1 VH
VL: B1 VL with Q70D
notes: human IgG1/Ckappa
With B20, the Kd in test [1] was determined as 0.453 nM.

B21: huBG138P-Hz3 (antibody, V domains shown)
VH: B1 VH with I37V, K38R, I48M, K67R, A68V, L70I, Y84S
VL: B1 VL with S43V, V48I, D56S, Q70D, S72T, S100Q
notes: as for B8
As to B21, in test [2], the Kd amounted to 0.242 nM.

The values are drawn from patent US20250382384A1 (BEONE MEDICINES I, published 2025).
